The source of these data is article PMC3215731.

This test deals with TNC-scTNFR2 (trimerization domain of human tenascin C fused to the N-terminus of the TNFR2-selective single-chain TNF) (human) (UniProt P24821). Briefly: SEC; HPLC-SEC, BioSep-SEC-S2000 7.8x300 column, PBS, 0.5 ml/min, 50 µl sample at 0.1 to 0.5 mg/ml, against standard proteins; oligomerization state under native conditions.

“TNC-scTNFR2 (trimerization domain of human tenascin C fused to the N-terminus of the TNFR2-selective single-chain TNF) (from UniProt P24821 110-139) (ligand)” returned a stoichiometry N of 3.

As usually defined, the stoichiometry N is a count of units in the complex or per binding partner.
